2 molecules from patent US10654917B2, “Antibody molecules and peptide delivery systems for use in alzheimer's disease and related disorders” (TECHNOPHAGE, INVESTIGAÇĀO E DESENVOLVIMENTO EM …, priority 2015, dated 2020) can be followed below.

Series [1] is described as follows: Partition coefficient Kp by intrinsic trp fluorescence. It counts as physicochemical. On the procedure: For the pepH3, the “partition coefficient” or “affinity constant” also was determined, since this peptide intrinsically presents a tryptophan and, thus, successful administrations of the lipid compositions allowed determination of pepH3's affinity constant.
PepH2 and pepH3 are the most hydrophobic peptides (Po/w). In addition, pepH2 interacts with various lipid compositions of membrane models, while pepH3 only interacts with membranes rich in PS (a negatively charged phospholipid).

Series [2] can be described thus: Stability in blood and urine after injection, HPLC. Type of series: in vivo, mice. Conditions: 5 and 60 minutes following injection. On the procedure: Finally, stability of the peptides was determined. Urine and blood were taken from the animals after death, filtered, and analyzed by RT-HPLC. HPLC analysis was conducted to assess the stability of pepH1 and pepH3 peptides in blood and urine, 5 and 60 minutes post-administration, compared to the respective original preparations.
FIGS. 28A-28D show the profile of pepH1 and pepH3 each in its original preparation, prior to injection into the animals, and then after 5 and 60 minutes following injection in the blood and urine.

The nature of series [3]: Features of peptides: isoelectric point, charge. The conditions noted are these: original peptide. Type of series: physicochemical. The source says: Table 7 lists each peptide's name, isoelectric point (PI), charge (number of positive residues), calculated mass (in Da), and ion found; as well as the name, calculated mass, and found ion for the corresponding conjugate; and also retention times in HPLC and the partition coefficient (log Po/w). These values allowed the determination of the hydrophilic nature of peptides, where pepH1 and pepH4 were identified as the most hydrophilic peptides.

For another series, the system named is bEnd3 cells. The series can be described thus: Uptake test: cellular interaction (acid wash) and internalization (lysate). It counts as cell-based. As to the method: In addition to testing models of BBB, an uptake test was performed to determine the internalizing ability of the candidate peptides. BEnd3 cells were cultured in 24 well plates. At each time point, the medium containing the peptide, which had not interacted with the cells, was collected. In the next step, the cells were washed with an acidic buffer that releases peptides more strongly bound to the cell membrane (sample acid wash). Finally, the cells were lysed to release internalized peptides and to quantify the activity inside the cells. Results are showing in FIGS. 23A-23E.
FIGS. 23A-23E show percent activity of the radioisotope technetium-labelled peptides in the media, wash buffer (acid wash) and lysate, after 15 minutes, 5 hours, and 24 hours of incubation with bEnd3 cells; and values were obtained from two independent assays. […] PepM′, as well as showing high transmigration (about 50%), also appeared to become internalized and accumulated within the cells (about 13% of radioactivity in the lysate).
(§1) Table 9 summarizes results regarding uptake (internalization) and cellular interaction, as well as transmigration across an in vitro model for BBB, for peptides labelled with technetium and gallium, after 15 minutes, 5 hours, and 24-hours of incubation, based on percent recovery of radiopeptide. The Table lists the peptides, providing each peptide's name, % BBB transmigration, % cellular interaction, and % internalized, each after […], 5 hours, and 24 hours of incubation.

Series [4] deals with in vitro model of the BBB (bEnd3 cells). The series is described as follows: Transmigration of radiolabelled peptides across in vitro BBB model. Type of series: in vitro ADME. As to the method: Using the same in vitro model of the BBB described above, peptides labelled with technetium and gallium were tested for the ability to cross endothelial barrier. For each peptide, bEnd3 cells cultured on “tissue culture inserts” were incubated with 5 ρCimL^−1-labelled peptide for different incubation times: 15 min, 5 h and 24 h. As a control, the model without cells was used (Control no cells) or (Filters) and compared to models with cells (BBB) or (Cells).
FIGS. 21A-21F show the percent activity of the radioisotope technetium-labelled peptides at the apex and base after 5 hours of incubation with the in vitro model described above, using the BBB-model or no cells (as a control); and values were obtained from two independent assays. […] Moreover, the results indicated promising candidates. Specifically, for each of pepH1 and pepH3, there was an overpass of 50% in the control, compared with only 20% in the presence of a cell barrier. The translocation of pepH2 was not observed in either the control nor in the BBB model.
Results for the incubations of 15 minutes, 5 hours, and 24 hours are shown together in FIGS. 22A-22F. That is, FIGS. 22A-22F show the percent activity of the radioisotope technetium-labelled peptides at the apex and base after 15 minutes, 5 hours, and 24 hours of incubation with the in vitro model described above, using the BBB-model or no cells (as a control); and values were obtained from two independent assays. Differences again were observed, confirming the integrity of the barrier, as well as identifying peptides that crossed the barrier. […] PepR′ thus was excluded from further tests.
as §1

Series [5] in a line: Biodistribution of technetium-labelled peptides. Type of series: in vivo, CD1 mice. In short, it runs like this:
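CD1 mice received technetium-labelled peptide (8.5×10^−5 M final labelling concentration, in PBS) by tail-vein iv injection; in a repeat study dose was raised one hundred fold. Organs were dissected, washed, weighed and counted at 5 and 60 min, or 2 and 60 min in the repeat, as % injected activity or per gram tissue.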

Another series concerns the target T1, BAP42 (Homo sapiens, UniProt P05067).
T1 construct: “beta-amyloid peptide 42”, or “beta-amyloid peptide 1-42”
The series is described as follows: Thioflavin T assay of BAP42 aggregation inhibition. Type of series: biochemical. Conditions: proportions 1:5 and 1:20 sdAb:BAP42. On the procedure:
Once purified and verified in recognizing BAP42 oligomers, anti-oligomer antibodies were purified were tested for their ability to inhibit aggregation of the peptide to fibrillar forms. This assay was performed using the thioflavin T (ThT), which, as discussed above, is a probe that recognizes rich “beta-sheet” secondary structures, the structure indeed characteristic of fibrillar BAP42. Accordingly, the greater aggregation inhibition by a candidate anti-oligomer sdAb, the less fibrils formed, and thus the smaller the signal emitted by ThT during the assay. Other selected anti-oligomer sdAbs show similar aggregation inhibition.
Anti-oligomers also were tested for their ability to inhibit aggregation of BAP42. This assay was performed using Thioflavin T (ThT), which, as described above, recognizes beta-sheet rich structures, characteristic of fibrillar form of BAP42, so that the ability of sdAbs to inhibit aggregation can be assessed. Specifically, the more aggregation is inhibited, the smaller the signal emitted by ThT. Two proportions were tested, namely, 1:5 (one molecule for sdAb for every 5 BAP42 molecules) and 1:20 (one molecule for sdAb for every 20 BAP42 molecules).

Several values for one entry are separate records, joined by “and”; a condition that tells them apart may be missing. Equal entries are not always repeated.

T1 sequence (P05067 672-713 limits assumed): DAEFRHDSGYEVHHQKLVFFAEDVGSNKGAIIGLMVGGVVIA

On to “AGILKRW (Dengue virus 2; /note=“#PepH3 (PEP+)”)”, for which, in series [1], the “affinity constant for POPC:POPS (1:4) relative to other lipid compositions” value is 5 times. Further, the “Kp ± SD” value is 1,558 and 1,558 ± 216 in series [1] (Lipidic membrane POPC:POPS (1:4)); 455 ± 46 in series [1] (Lipidic membrane POPC:POPS (3:2)); 324 and 342 ± 102 in series [1] (Lipidic membrane POPC:POPS (4:1)). Moreover, the “stability in blood and urine” value in series [2] is “stable in the blood and urine”. In series [3], the “Charge (number of positive residues)” value was 2. Besides, the “PI (isoelectric point)” value in series [3] is 11. Further, the “where the radiopeptide is found in the uptake test (media, acid wash, lysate)” value with bEnd3 cells (99mTc) is “mainly remained in the incubation medium”. The Cellular interaction was 1.50 ± 0.1% in the series on bEnd3 cells (99mTc, 0.25 hours); 1.15 ± 0.1% with bEnd3 cells (99mTc, 5 hours); 0.60 ± 0.1% with bEnd3 cells (99mTc, 24 hours); 0.26 ± 0.0% with bEnd3 cells (GaCl3, 0.25 hours); 0.73 ± 0.0% in the series on bEnd3 cells (GaCl3, 5 hours); 0.60 ± 0.1% in the series on bEnd3 cells (GaCl3, 24 hours). Besides, the Internalization in the series on bEnd3 cells (99mTc, 0.25 hours) turned out to be 0.15 ± 0.1%; in the series on bEnd3 cells (99mTc, 5 hours), 0.15 ± 0.1%; in the series on bEnd3 cells (99mTc, 24 hours), 0.35 ± 0.2%; in the series on bEnd3 cells (GaCl3, 0.25 hours), 0.03 ± 0.0%; with bEnd3 cells (GaCl3, 5 hours), 0.12 ± 0.0%; in the series with bEnd3 cells (GaCl3, 24 hours) it was 0.30 ± 0.1%. In addition, the BBB transmigration in series [4] (99mTc, 0.25 hours) is 2.70 ± 0.0%; in series [4] (99mTc, 5 hours) it was 9.16 ± 6.5%; in series [4] (99mTc, 5 hours, listed as pepH3) it was 20%; in series [4] (99mTc, 24 hours), 67.23 ± 1.2%; in series [4] (99mTc, 24 hours, listed as pepH3), “about 70%”; in series [4] (GaCl3, 0.25 hours), 1.87 ± 0.3%. Also, the BBB transmigration in series [4] (GaCl3, 5 hours) came out at 26.47 ± 0.4%; in series [4] (GaCl3, 24 hours), 72.63 ± 0.7%. For the same molecule, the “overpass in the control (no cells)” value in series [4] (99mTc, 5 h, no cells) is listed as 50%. Also, the “radioactivity in the brain” value in series [5] (140 μg (pepH1, pepH3) or 80 μg (pepH2), 2 min) is 0.31% and 0.37%. The excreted in series [5] (140 μg (pepH1, pepH3) or 80 μg (pepH2), after 60 min) stood at 36%. Further, in series [5] (after 2 min), the brain uptake entry is “rapid brain uptake”. The brain washout result in series [5] (mouse, in vivo) is given as “rapid brain washout”.

B1: FC5: sdAb from the literature binding BBB receptors; positive control for BBB transmigration, SEQ ID NO: 112 (protein, listed as Lama glama)
VHH: ASEVQLQASGGGLVQAGGSLRLSCAASGFKITHYTMGWFRQAPGKEREFVSRITWGGDNTFYSNSVKGRFTISRDNAKNTVYLQMNSLKPEDTADYYCAAGSTSTATPLRVDYWGKGTQVTVSSLE
modifications: /note=“#FC5”
Regarding B1, in the series with BAP42, the “inhibition of BAP42 fibrillization (ThT signal)” value is listed as “do not inhibit fibrillization”.
